Measured values as given in US20030100501A1, “Q4N2NEG2 enhances CFTR activity” (Case Western Reserve University, priority 2001, published 2003).
Square brackets hold non-standard residues; d marks the D form. Ends that are not written are not given here. Nle = CCCC[C@H](N)C(=O)O

Assays:
wt-CFTR channel = target: T1, wt-CFTR channel (Homo sapiens, UniProt P13569); experiment: Single channel recording of CFTR channels reconstituted in planar lipid bilayer, peptide added to cis (intracellular) side; assay type: biochemical
T1 construct: expressed in transfected cells; host or cells: 293-EBNA HEK cells (Invitrogen) transfected with pCEP4(wt); microsomal membrane vesicles
T1 sequence (P13569 whole entry): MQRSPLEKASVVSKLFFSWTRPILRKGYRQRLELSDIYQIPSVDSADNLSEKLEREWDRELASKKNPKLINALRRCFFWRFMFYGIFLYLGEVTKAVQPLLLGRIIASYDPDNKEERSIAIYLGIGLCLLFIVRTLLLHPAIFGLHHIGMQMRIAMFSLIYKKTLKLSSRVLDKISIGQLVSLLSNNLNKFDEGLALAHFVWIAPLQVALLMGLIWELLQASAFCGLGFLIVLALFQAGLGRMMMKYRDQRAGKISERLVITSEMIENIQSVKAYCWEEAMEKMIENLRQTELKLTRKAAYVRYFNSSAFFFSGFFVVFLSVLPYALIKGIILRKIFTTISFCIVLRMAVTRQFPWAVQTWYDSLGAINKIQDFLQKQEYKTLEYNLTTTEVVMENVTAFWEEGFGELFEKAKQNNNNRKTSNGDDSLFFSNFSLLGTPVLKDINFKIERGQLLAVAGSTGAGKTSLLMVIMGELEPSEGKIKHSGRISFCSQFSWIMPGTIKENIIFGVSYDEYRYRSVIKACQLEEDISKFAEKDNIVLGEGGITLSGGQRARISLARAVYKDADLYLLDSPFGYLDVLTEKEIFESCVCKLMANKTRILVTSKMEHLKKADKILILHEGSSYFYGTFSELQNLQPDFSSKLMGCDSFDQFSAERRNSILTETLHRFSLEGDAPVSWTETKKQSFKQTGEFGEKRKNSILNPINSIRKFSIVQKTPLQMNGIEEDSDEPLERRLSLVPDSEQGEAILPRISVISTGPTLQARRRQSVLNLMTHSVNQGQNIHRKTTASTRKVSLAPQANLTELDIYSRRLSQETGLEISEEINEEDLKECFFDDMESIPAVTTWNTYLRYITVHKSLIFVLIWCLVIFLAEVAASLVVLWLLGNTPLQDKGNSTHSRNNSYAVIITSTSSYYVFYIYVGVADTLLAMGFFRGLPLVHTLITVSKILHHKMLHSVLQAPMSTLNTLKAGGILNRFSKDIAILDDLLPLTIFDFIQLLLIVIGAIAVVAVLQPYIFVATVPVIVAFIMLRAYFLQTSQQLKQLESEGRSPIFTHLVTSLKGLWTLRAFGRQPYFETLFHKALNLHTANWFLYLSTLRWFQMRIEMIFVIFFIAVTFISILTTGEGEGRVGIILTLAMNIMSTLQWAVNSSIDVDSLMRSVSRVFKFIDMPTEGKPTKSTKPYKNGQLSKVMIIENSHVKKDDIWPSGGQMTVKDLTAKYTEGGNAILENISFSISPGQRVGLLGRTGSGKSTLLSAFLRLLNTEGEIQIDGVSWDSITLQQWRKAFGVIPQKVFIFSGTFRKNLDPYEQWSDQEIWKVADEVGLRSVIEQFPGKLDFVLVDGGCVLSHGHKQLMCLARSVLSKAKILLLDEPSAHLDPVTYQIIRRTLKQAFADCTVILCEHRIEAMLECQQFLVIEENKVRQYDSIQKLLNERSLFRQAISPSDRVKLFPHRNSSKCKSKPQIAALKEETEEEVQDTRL
Description: The activating peptide of Q4N2NEG2 was created by substituting glutamine residues for glutamic acid residues at four sites and asparagines for aspartic acid residues at two sites of the authentic NEG2 peptide sequence […] (SEQ ID NO: 7). In addition, a serine residue was substituted for cysteine, to prevent peptide dimerization, and norleucine was substituted for methionine, to prevent oxidation. These changes create a peptide with reduced chemical reactivity and high predicted helical structure, confirmed by circular dichroism, as well as reduced net negative charge (from −9 to −3). […] At concentrations of 4-6 μM Po of CFTR doubles.
To test whether the Q4N2NEG2 polypeptide is responsible for increasing the open probability of the CFTR channel, synthetic Q4N2NEG2, a 22 amino acid peptide, was added to the cis-intracellular side of single CFTR channels captured in the planar lipid bilayer (FIG. 1). […] During stimulation, the open probability doubles and more transitions are observed between the open and closed states (FIG. 1B). The open probability observed in 5 experiments at 4 μM concentration Q4N2NEG2 is shown to be increased by about two-fold in the graph (FIG. 1C).
The wt CFTR cDNA was subcloned into an Epstein-Barr virus-based episomal eukaryotic expression vector, pCEP4 (Invitrogen, San Diego, Calif.), between the Nhe1 and Xho1 restriction sites.
A human embryonic kidney cell line (293-EBNA HEK; Invitrogen) was used for transfection and expression of the CFTR proteins (Ma et al., 1997, Ma et al., 1996, Xie et al., 1995). The HEK-293 cell line contains a pCMV-EBNA vector, which constitutively expresses the Epstein-Barr virus nuclear antigen-1 (EBNA-1) gene product and increases the transfection efficiency of Epstein-Barr virus-based vectors. The cells were maintained in Dulbecco's Modified Eagle Medium with 10% FBS and 1% L-glutamine. Geneticin (G418, 250 (g/ml) was added to the cell culture medium to maintain selection of the cells containing the pCMV-EBNA vector. Lipofectamine reagent (Life Technologies, Inc) in Optimem media (serum-free) was used to transfect the HEK-293 cells with pCEP4(wt). After 5 hours, serum was added to the media (10% final serum concentration). Twenty-four hours after transfection, the transfection media was replaced with fresh media. The cells were harvested two days after transfection and microsomal membrane vesicles were prepared for single channel measurements in the lipid bilayer reconstitution system.
HEK-293 cells transfected with pCEP4(CFTR) were harvested and homogenized using a combination of hypotonic lysis and Dounce homogenization in the presence of protease inhibitors (Ma et al., 1997, Ma et al., 1996, Xie et al., 1995). […]
Lipid bilayer membranes were formed across an aperture of ˜200 (m diameter with a mixture of phosphatidylethanolamine:phosphatidylserine:cholesterol in a ratio of 5:5:1. The lipids were dissolved in decane at a concentration of 33 mg/ml. The recording solutions contained: cis (intracellular), 200 mM CsCl, 1 mM MgCl2, 2 mM ATP, and 10 mM HEPES-Tris (pH 7.4); trans (extracellular), 50 mM CsCl, 10 mM HEPES-Tris (pH 7.4). Vesicles (1-4 (1) containing wild-type CFTR were added to the cis solution. The PKA catalytic subunit was present at a concentration of 50 units/ml in the cis solution unless noted otherwise. Single channel currents were recorded with an Axopatch 200A patch clamp unit (Axon Instruments). […]

mutant G551D CFTR = target: T2, mutant G551D CFTR (Homo sapiens, UniProt P13569, G551D); experiment: Planar lipid bilayer open probability of mutant CFTR; assay type: biochemical
T2 construct: expressed in transfected cells; host or cells: 293-EBNA HEK cells (inferred: the methods describe this line for 'the CFTR proteins')
T2 sequence (P13569 whole entry G551D): as the sequence (P13569 whole entry) above, with G551D counted along it
Description: The Q4 N2 NEG2 peptide sequence has been tested on one mutant form of CFTR, G551D, which reaches the plasma membrane. In the planar lipid bilayer, Q4N2NEG2 increased the open probability of G551 by about threefold. Thus, this peptide is useful to stimulate channel activity in mutant forms of CFTR that reach the plasma membrane.
Lipid bilayer membranes were formed across an aperture of ˜200 (m diameter with a mixture of phosphatidylethanolamine:phosphatidylserine:cholesterol in a ratio of 5:5:1. The lipids were dissolved in decane at a concentration of 33 mg/ml. The recording solutions contained: cis (intracellular), 200 mM CsCl, 1 mM MgCl2, 2 mM ATP, and 10 mM HEPES-Tris (pH 7.4); trans (extracellular), 50 mM CsCl, 10 mM HEPES-Tris (pH 7.4). Vesicles (1-4 (1) containing wild-type CFTR were added to the cis solution. The PKA catalytic subunit was present at a concentration of 50 units/ml in the cis solution unless noted otherwise. Single channel currents were recorded with an Axopatch 200A patch clamp unit (Axon Instruments). The currents were sampled at 1-2.5 ms/point. Single channel data analyses were performed with pClamp and TIPS softwares.

## GLEISEQINQQNLKQSFFNDLE (Ac-GLEISEQINQQNLKQSFFND[Nle]E; not fully specified (C-terminus)) [Q4N2NEG2, synthetic 22 amino acid peptide derived from NEG2 with four Glu to Gln, two Asp to Asn, Cys to Ser, Met to norleucine substitutions]
wt-CFTR channel; 4 μM peptide, summary of 5 experiments (FIG. 1C)
  increase in open probability (Po) of CFTR channel: about two-fold
wt-CFTR channel; any experiment at any concentration of peptide
  inhibitory activity on CFTR channel: No inhibitory activity
wt-CFTR channel; concentration ranging 0.5 to 14 μM, cis side
  stimulation of channel activity: marked dose-related stimulation
wt-CFTR channel; peptide concentrations of 4-6 μM, cis side
  Po of CFTR: doubles
wt-CFTR channel; single channel trace, FIG. 1A/1B, 4 μM
  open probability during stimulation, single wt-CFTR channel: doubles
Mutant G551D CFTR
  increase in open probability of G551D CFTR: about threefold
